Data: patent US20060241051A1 (Takeda / Millennium, published 2006)
Numbered stars: 1 amine (or outer) side, 2 acyl side, 3 side chain; on linkers, the order of the positions; unused ones are H or OH. Square brackets hold non-standard residues; d marks the D form. Primed or numbered codes have the meaning given here. Ends that are not written are not given here. * marks the point of attachment. Trp(For)″ = Trp(CHO), O=Cn1cc(C[C@H](N[*:1])C(=O)[*:2])c2ccccc21; Phe(3-CF3) = N[C@@H](Cc1cccc(C(F)(F)F)c1)C(=O)O; Phe(3,4-F2) = N[C@@H](Cc1ccc(F)c(F)c1)C(=O)O; Phe(4-CN) = N#Cc1ccc(C[C@H](N)C(=O)O)cc1; Phe(4-Cl) = N[C@@H](Cc1ccc(Cl)cc1)C(=O)O; Phe(3-F) = N[C@@H](Cc1cccc(F)c1)C(=O)O; Phe(4-F) = N[C@@H](Cc1ccc(F)cc1)C(=O)O; Phe(2-F) = N[C@@H](Cc1ccccc1F)C(=O)O; Arg(Me) = CNC(=N)NCCC[C@H](N)C(=O)O; Fmoc = O=C(OCC1c2ccccc2-c2ccccc21)*; 2Pal = N[C@@H](Cc1ccccn1)C(=O)O; 3Pal = N[C@@H](Cc1cccnc1)C(=O)O; Cha = N[C@@H](CC1CCCCC1)C(=O)O; Arg(Et)′ = not defined here; Dab = NCC[C@H](N)C(=O)O; azaGly = NNC(=O)O

B1: Compound No. 275: des(1-2)-Acetyl-[Arg3,AzaGly7,Arg(Me)9]MS10 (peptide)
peptide: Ac-RNSF[azaGly]L[Arg(Me)]F-NH2
SMILES: CNC(=N)NCCC[C@H](NC(=O)[C@H](CC(C)C)NC(=O)NNC(=O)[C@H](Cc1ccccc1)NC(=O)[C@H](CO)NC(=O)[C@H](CC(N)=O)NC(=O)[C@H](CCCNC(=N)N)NC(C)=O)C(=O)N[C@@H](Cc1ccccc1)C(N)=O
B2: Compound No. 276: des(1-2)-Acetyl-[Thr3,AzaGly7,Arg(Me)9]MS10 (peptide)
peptide: Ac-TNSF[azaGly]L[Arg(Me)]F-NH2
SMILES: CNC(=N)NCCC[C@H](NC(=O)[C@H](CC(C)C)NC(=O)NNC(=O)[C@H](Cc1ccccc1)NC(=O)[C@H](CO)NC(=O)[C@H](CC(N)=O)NC(=O)[C@@H](NC(C)=O)[C@@H](C)O)C(=O)N[C@@H](Cc1ccccc1)C(N)=O
B3: Compound No. 251: [D-Tyr1,Pya(3) 3,AzaGly7,Arg(Me)9]MS10 (peptide)
peptide: [dY]N[3Pal]NSF[azaGly]L[Arg(Me)]F-NH2
modifications: N-terminus assumed
SMILES: CNC(=N)NCCC[C@H](NC(=O)[C@H](CC(C)C)NC(=O)NNC(=O)[C@H](Cc1ccccc1)NC(=O)[C@H](CO)NC(=O)[C@H](CC(N)=O)NC(=O)[C@H](Cc1cccnc1)NC(=O)[C@H](CC(N)=O)NC(=O)[C@H](N)Cc1ccc(O)cc1)C(=O)N[C@@H](Cc1ccccc1)C(N)=O
B4: Compound No. 285: [D-Tyr1,Pya(2) 3,AzaGly7,Arg(Me)9]MS10 (peptide)
peptide: [dY]N[2Pal]NSF[azaGly]L[Arg(Me)]F-NH2
modifications: N-terminus assumed
SMILES: CNC(=N)NCCC[C@H](NC(=O)[C@H](CC(C)C)NC(=O)NNC(=O)[C@H](Cc1ccccc1)NC(=O)[C@H](CO)NC(=O)[C@H](CC(N)=O)NC(=O)[C@H](Cc1ccccn1)NC(=O)[C@H](CC(N)=O)NC(=O)[C@H](N)Cc1ccc(O)cc1)C(=O)N[C@@H](Cc1ccccc1)C(N)=O
B5: Compound No. 145: des(1-2)-Fmoc-[Arg(Me)9]MS10 (peptide)
peptide: Fmoc-WNSFGL[Arg(Me)]F-NH2
SMILES: CNC(=N)NCCC[C@H](NC(=O)[C@H](CC(C)C)NC(=O)CNC(=O)[C@H](Cc1ccccc1)NC(=O)[C@H](CO)NC(=O)[C@H](CC(N)=O)NC(=O)[C@H](Cc1c[nH]c2ccccc12)NC(=O)OCC1c2ccccc2-c2ccccc21)C(=O)N[C@@H](Cc1ccccc1)C(N)=O

Molecular target: T1, human OT7T175 (metastin receptor) (human, UniProt Q969F8 1-398)
T1 construct: expressed on CHO cells (hOT7T175-expressed CHO cells; hOT7T175/CHO); also called hOT7T175; h0T7T175
Experiment: FMAT competition with Cy-5-labeled metastin (40-54), hOT7T175-expressed CHO cells
Protocol: h0T7T175-Expressed CHO cells were cultured in MEM-α medium (nucleic acid-free) containing 10% dialyzed serum. The medium was removed and the adherent cells were washed with PBS. Then, PBS containing 5 mM EDTA was added and the cells were scraped from a flask with a cell scraper. […] To each well of a 96-Well Black Clear Bottom Plate (Applied Biosystems, Inc.), 10 μL of assay buffer containing 1% dimethylsulfoxide was added to examine total binding, 10 μL of 10 μM non-labeled peptide (having the same amino acid sequence as that of the labeled one) solution diluted with assay buffer to examine non-specific binding, and 10 μL of a test compound diluted with assay buffer to examine the binding inhibition activity of the test compound, respectively. Furthermore, 90 μL each of the cell suspension was dispensed to each well. […] The specific binding is a value obtained by subtracting the non-specific binding from the total binding.

T1 sequence (Q969F8 whole entry L364H): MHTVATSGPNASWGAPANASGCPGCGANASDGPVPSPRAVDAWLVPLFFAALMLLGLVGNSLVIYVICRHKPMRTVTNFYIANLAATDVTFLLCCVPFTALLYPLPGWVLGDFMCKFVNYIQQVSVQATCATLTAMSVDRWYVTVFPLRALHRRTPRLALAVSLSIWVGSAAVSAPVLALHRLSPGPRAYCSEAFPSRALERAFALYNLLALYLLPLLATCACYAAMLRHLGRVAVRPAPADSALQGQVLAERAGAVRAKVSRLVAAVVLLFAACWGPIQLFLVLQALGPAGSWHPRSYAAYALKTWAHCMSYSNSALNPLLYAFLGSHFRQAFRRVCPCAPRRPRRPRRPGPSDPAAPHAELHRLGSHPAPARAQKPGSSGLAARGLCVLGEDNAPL

Binder | IC50 [µM]
YNWNYFGLRF-NH2 [Compound No. 23: [Tyr5]MS10] | 0.4
YNWNSFGLKF-NH2 [Compound No. 44: [Lys9]MS10] | 0.19
YDWNSFGLRF-NH2 [Compound No. 57: [Asp2]MS10] | 0.1
YYWNSFGLRF-NH2 [Compound No. 58: [Tyr2]MS10] | 0.016
YLWNSFGLRF-NH2 [Compound No. 59: [Leu2]MS10] | 0.34
YNANSFGLRF-NH2 [Compound No. 67: [Ala3]MS10] | 0.027
YNLNSFGLRF-NH2 [Compound No. 68: [Leu3]MS10] | 0.0077
YNSNSFGLRF-NH2 [Compound No. 69: [Ser3]MS10] | 0.083
YNDNSFGLRF-NH2 [Compound No. 70: [Asp3]MS10] | 0.2
YNKNSFGLRF-NH2 [Compound No. 71: [Lys3]MS10] | 0.066
ANWNSFGLRF-NH2 [Compound No. 72: [Ala1]MS10] | 0.54
LNWNSFGLRF-NH2 [Compound No. 73: [Leu1]MS10] | 0.22
YNWNSFGVRF-NH2 [Compound No. 107: [Val8]MS10] | 0.12
YNWNSYGLRF-NH2 [Compound No. 150: [Tyr6]MS10] | 0.32
YNWNSFGLR[Trp(For)″]-NH2 (also called [Trp(CHO)10]MS10) [Compound No. 186: [Trp(For)10]MS10] | 0.46
[dY]NSNSF[azaGly]L[Arg(Me)]F-NH2 [Compound No. 191: [D-Tyr1,Ser3,AzaGly7,Arg(Me)9]MS10] | 0.3
[dY]NTNSF[azaGly]L[Arg(Me)]F-NH2 [Compound No. 221: [D-Tyr1,Thr3,AzaGly7,Arg(Me)9]MS10] | 0.095
[dY]N[dA]NSF[azaGly]L[Arg(Me)]F-NH2 [Compound No. 252: [D-Tyr1,D-Ala3,AzaGly7,Arg(Me)9]MS10] | 0.58
[dY]NPNSF[azaGly]L[Arg(Me)]F-NH2 [Compound No. 253: [D-Tyr1,Pro3,AzaGly7,Arg(Me)9]MS10] | 0.027
NWNSFGLRF-NH2 (also called human metastin 9 (46-54)) [Compound No. 4: des(1)-MS10] | 0.26
[dN][dW]NSFGL[Arg(Me)]F-NH2 [Compound No. 225: des(1)-[D-Asn2,D-Trp3,Arg(Me)9]MS10] | 0.41
[dY]SNSFGL[Arg(Me)]F-NH2 [Compound No. 226: des(1)-[D-Tyr2,Ser3,Arg(Me)9]MS10] | 0.1
[dY]TNSFGL[Arg(Me)]F-NH2 [Compound No. 227: des(1)-[D-Tyr2,Thr3,Arg(Me)9]MS10] | 0.048
[dY]SNSF[azaGly]L[Arg(Me)]F-NH2 [Compound No. 239: des(1)-[D-Tyr2,Ser3,AzaGly7,Arg(Me)9]MS10] | 0.12
[dY]INSF[azaGly]L[Arg(Me)]F-NH2 [Compound No. 240: des(1)-[D-Tyr2,Ile3,AzaGly7,Arg(Me)9]MS10] | 0.017
B1 | 0.41

Binder | IC50 [µM]
B2 | 0.48
[dY]N[Cha]NS[Cha]GL[Arg(Me)]F-NH2 [Compound No. 181: [D-Tyr1,Cha3,6,Arg(Me)9]MS10] | 0.019
[dW]NSFGL[Arg(Me)]F-NH2 [Compound No. 223: des(1-2)-[D-Trp3,Arg(Me)9]MS10] | 0.76
[dY]N[dW]NSF[azaGly]LR(Me)F-NH2 [Compound No. 236: (D-Tyr1,D-Trp3,AzaGly7,Arg(Me)9]MS10] | 0.042
B3 | 0.087
[dY][dN][Cha]NSF[azaGly]L[Arg(Me)]F-NH2 [Compound No. 283: [D-Tyr1,D-Asn2,Cha3,AzaGly7,Arg(Me)9]MS10] | 0.00069
B4 | 0.04
YNWNSF[azaGly]L[Arg(Me)]F-NH2 (also: Tyr1-Asn2 bond reduced (CH2NH)) [Compound No. 299: [1Ψ2,CH2NH,AzaGly7,Arg(Me)9]-MS10] | 0.0012
[dY]NWNSFGL[Arg(Me)]F-NH2 (also: Gly7-Leu8 bond reduced (CH2NH)) [Compound No. 307: [7Ψ8,CH2NH,D-Tyr1,Arg(Me)9]MS10] | 0.064
[dY]NWNSFGL[Arg(Me)]F-NH2 (also: Phe6-Gly7 bond reduced (CH2NH)) [Compound No. 308: [6Ψ7, CH2NH,D-Tyr1,Arg(Me)9]MS10] | 0.35
YNWNSFGL[Dab]F-NH2 [Compound No. 313: [Dab9]MS10] | 0.69
[dY]NWNSF[azaGly]L[Arg(Me)][Phe(4-F)]-NH2 [Compound No. 318: [D-Tyr1,AzaGly7,Arg(Me)9,Phe(4F)10]MS10] | 0.00099
{D‑Glucuronyl}-NSF[azaGly]L[Arg(Me)]F-NH2 [Compound No. 328: des(1-3)-D-Glucuronyl-[AzaGly7,Arg(Me)9]MS10] | 0.47
YNWNSFGLRX (Pya(3)10; C-terminal amide) [Compound No. 60: [Pya(3)10]MS10] | 0.17
YNWNSFGLR[Phe(4-F)]-NH2 [Compound No. 61: [Phe(4F)10]MS10] | 0.013
YNWNSFGLR[Phe(4-CN)]-NH2 [Compound No. 77: [Phe(4CN)10]MS10] | 0.0074
YNWNSFGL[Arg(Me)]F-NH2 [Compound No. 82: [Arg(Me)9]MS10] | 0.0041
YNWNSFGLR[Phe(4-Cl)]-NH2 [Compound No. 130: [Phe(4Cl)10]MS10] | 0.042
[dY]N[dW]NSFGL[Arg(Me)]F-NH2 [Compound No. 142: [D-Tyr1,D-Trp3,Arg(Me)9]MS10] | 0.026
B5 | 0.12
YNWNSFGLR[Phe(2-F)]-NH2 [Compound No. 19: [Phe(2F)10]MS10] | 0.0086
[dY]NWNSFGL[Arg(Et)′]F-NH2 [Compound No. 192: [D-Tyr1,Arg(Et)9]MS10] | 0.53
YNWNSFGLR[Phe(3-F)]-NH2 [Compound No. 197: [Phe(3F)10]MS10] | 0.17
YNWNSFGLR[Phe(3,4-F2)]-NH2 [Compound No. 198: [Phe(3,4F2)10]MS10] | 0.17
YNWNSFGLR[Phe(3-CF3)]-NH2 [Compound No. 200: [Phe(3CF3)10]MS10] | 0.34
YNWNSFGLR(Et)F-NH2 [Compound No. 220: [Arg(Et)9]MS10] | 0.33
